{"source": "patent US20130203609A1", "about": "(BOARD OF TRUSTEES OF NORTHERN ILLINOIS UNIVERSITY, published 2013)", "binders": {"B1": {"name": "wild-type anti-RNase A VHH (cAb-RN05) (VHH)", "VHH": "QVQLVESGGGLVQAGGSLRLSCAASGYAYTYIYMGWFRQAPGKEREGVAAMDSGGGGTLYADSVKGRFTISRDKGKNTVYLQMDSLKPEDTATYYCAAGGYELRDRTYGQWGQGTQVTVSS", "notes": "Camelid single-domain antibody; also called VHH-wt; wt-VHH"}, "B2": {"name": "VHH-metal (metal sensitive anti-RNase A VHH) (VHH)", "VHH": "B1 VHH with A28P, Y29H, T30P, I32L, Y33H, E102Q, Q110H", "notes": "also called Metal-VHH"}}, "key": {"[1]": {"target": "T1, bovine pancreatic RNase A (bovine, UniProt P61823 27-150)", "T1 construct": "mature; Bought purified protein; The residue numbers K61 and T70, and the missing residues 16-22, fit the mature numbering; It was coated on plates in the ELISAs and biotinylated for the phage selections", "T1 sequence (looked up)": "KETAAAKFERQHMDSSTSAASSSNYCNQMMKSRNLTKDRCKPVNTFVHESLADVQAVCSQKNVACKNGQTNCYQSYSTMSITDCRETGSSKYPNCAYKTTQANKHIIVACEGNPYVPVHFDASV", "assay": "ITC, 25 C; no nickel", "procedure": "(§1) The binding parameters (K, ΔH°, ΔS°, and n) were determined using the single site binding model using the ITC add-in in Origin version 7 (MicroCal LLC). All titrations indicated a 1:1 interaction with observed stoichiometries equal to 1.0 (within 5%).\n(§2) ITC experiments were performed using a MicroCal VP-ITC (MicroCal, LLC, Northampton, Mass.). All experiments were performed at 25° C. Proteins were dialyzed against the desired experimental buffer, which included PBS (20 mM NaPhosphate, 150 mM NaCl pH 7.4), TBS (20 mM Tris-HCl, 150 mM NaCl pH 7.4) and TBS-E (20 mM Tris, 150 mM NaCl, 1 mM EDTA, pH 7.4). For direct titration of NiCl₂ into the VHHmetal variant, concentrations were 2 mM and 200 μM for NiCl₂ and VHH, respectively. Based on the observed binding constant, this corresponds to a “cvalue” of 6.7, which is within the commonly acceptable range for the accurate determination of binding thermodynamics (Tellinghuisen, 2008; Wiseman et al. 1989). For competitive titrations, nickel was included in TBS without EDTA at concentrations ranging from 0-10 mM. Competitive VHH/RNase A titration experiments with a “c” value greater than 10 included protein concentrations ranging from 30 μM to 205 μM. Conditions included a 10-fold higher concentration of titrant (VHH). […] These experiments included using a 100-fold higher concentration of titrant (RNase A) relative to VHH. RNase A concentrations were between 150 μM and 800 μM. Extinction coefficients were determined using values determined by the methods described by Pace, et. al. (1995). […] For nickel/VHH titrations, the titrant nickel was dissolved in the appropriate dialysis buffer at a 10× concentration of the VHH. Experiments typically included 27, 10 μL injections with a 240 second delay between each injection. Dilution titrations indicated the absence of significant heats of dilution, consequently, no background dilution heat subtractions were necessary. The binding parameters (K, ΔH°, ΔS°, and n) were determined using the single site binding model using the ITC add-in in Origin version 7 (MicroCal LLC)."}, "[2]": {"target": "T1, bovine pancreatic RNase A", "assay": "ITC, 25 C; RNase A binding with 1 mM nickel (competitive)", "procedure": "as §1, §2"}, "[3]": {"target": "T1, bovine pancreatic RNase A", "assay": "competitive phage ELISA without metals: VHH phage, serially diluted soluble RNase A (the varied competitor), RNase A-coated wells [panel A]", "procedure": "(§3) Competitive Phage ELISA: Competitive phage ELISA's were performed as described by DeLano and Cunningham (DeLano and Cunningham 2004). Briefly, the concentration of phage needed to produce a 60% saturation signal was determined by running a phage ELISA of serially diluted phage stocks. This fixed amount of phage was then added to serially diluted RNase A and incubated for one hour at room temperature. The well contents of that plate were then transferred to a washed and blocked RNase A coated Maxisorp microtiter plate and incubated 15 minutes at room temperature. The plates were then treated as described above to determine the […] absorbance. The IC50 values were then determined using Origin Labs using the following relationship: […]"}, "[4]": {"target": "T1, bovine pancreatic RNase A", "assay": "competitive phage ELISA with 1 mM metals: VHH phage, serially diluted soluble RNase A (the varied competitor), RNase A-coated wells [panel A]", "procedure": "as §3"}, "[5]": {"target": "T1, bovine pancreatic RNase A", "assay": "ITC, 25 C, no metal", "procedure": "ITC experiments were performed using a MicroCal VP-ITC (MicroCal, LLC, Northampton, Mass.). All experiments were performed at 25° C. Proteins were dialyzed against the desired experimental buffer, which included PBS (20 mM NaPhosphate, 150 mM NaCl pH 7.4), TBS (20 mM Tris-HCl, 150 mM NaCl pH 7.4) and TBS-E (20 mM Tris, 150 mM NaCl, 1 mM EDTA, pH 7.4). For direct titration of NiCl₂ into the VHH-metal variant, concentrations were 2 mM and 200 μM for NiCl2 and VHH, respectively. Based on the observed binding constant, this corresponds to a “c-value” of 6.7, which is within the commonly acceptable range for the accurate determination of binding thermodynamics. For competitive titrations, nickel was included in TBS without EDTA at concentrations ranging from 0-10 mM. Competitive VHH/RNase A titration experiments with a “c” value greater than 10 included protein concentrations ranging from 30 μM to 205 μM. Conditions included a 10-fold higher concentration of titrant (VHH). […] These experiments included using a 100-fold higher concentration of titrant (RNase A) relative to VHH. RNase A concentrations were between 150 μM and 800 μM. […] The binding parameters (K, ΔH°, ΔS°, and n) were determined using the single site binding model using the ITC add-in in Origin version 7 (MicroCal LLC). […]"}, "[6]": {"target": "T1, bovine pancreatic RNase A", "assay": "ITC, 25 C, pH 7.4; no nickel", "procedure": "as §1, §2"}, "[7]": {"target": "T1, bovine pancreatic RNase A", "assay": "ITC, 25 C, pH 7.4; no nickel; ITC at 25° C., no nickel", "procedure": "as §1\n(§4) ITC experiments were performed using a MicroCal VP-ITC (MicroCal, LLC, Northampton, Mass.). All experiments were performed at 25° C. Proteins were dialyzed against the desired experimental buffer, which included PBS (20 mM NaPhosphate, 150 mM NaCl pH 7.4), TBS (20 mM Tris-HCl, 150 mM NaCl pH 7.4) and TBS-E (20 mM Tris, 150 mM NaCl, 1 mM EDTA, pH 7.4). For direct titration of NiCl₂ into the VHHmetal variant, concentrations were 2 mM and 200 μM for NiCl₂ and VHH, respectively. Based on the observed binding constant, this corresponds to a “cvalue” of 6.7, which is within the commonly acceptable range for the accurate determination of binding thermodynamics (Tellinghuisen, 2008; Wiseman et al. 1989). For competitive titrations, nickel was included in TBS without EDTA at concentrations ranging from 0-10 mM. […] Extinction coefficients were determined using values determined by the methods described by Pace, et. al. (1995). […] The binding parameters (K, ΔH°, ΔS°, and n) were determined using the single site binding model using the ITC add-in in Origin version 7 (MicroCal LLC)."}, "[8]": {"target": "T1, bovine pancreatic RNase A", "assay": "ITC, 25 C; RNase A binding with 1 µM nickel (competitive)", "procedure": "as §1, §2"}, "[9]": {"target": "T1, bovine pancreatic RNase A", "assay": "ITC, 25 C; RNase A binding with 10 mM nickel (competitive)", "procedure": "as §1, §2"}, "[10]": {"target": "T1, bovine pancreatic RNase A", "assay": "ITC, 25 C; RNase A binding with 10 µM nickel (competitive)", "procedure": "as §1, §2"}, "[11]": {"target": "T1, bovine pancreatic RNase A", "assay": "ITC, 25 C; RNase A binding with 100 µM nickel (competitive)", "procedure": "as §1, §2"}, "[12]": {"target": "T1, bovine pancreatic RNase A", "assay": "ITC, 25 C, no metal; reference is the wild-type anti-RNase A VHH", "procedure": "as §1, §4"}, "[13]": {"target": "T1, bovine pancreatic RNase A", "assay": "competitive phage ELISA, soluble RNase A against coated RNase A, with and without 1 mM Zn2+/Co2+/Ni2+"}}, "note": "Positions count from the first letter of the chain named."}
{"binder": "B1", "values": [{"measurement": "-TΔS°", "setting": "[1]", "result": 1.9, "unit": "kcal/mol"}, {"measurement": "Kd", "setting": "[1]", "result": 19, "unit": "nM"}, {"measurement": "N", "setting": "[1]", "result": 1.01}, {"measurement": "ΔG°", "setting": "[1]", "result": -10.5, "unit": "kcal/mol"}, {"measurement": "ΔH°", "setting": "[1]", "result": -12.4, "unit": "kcal/mol"}, {"measurement": "-TΔS°", "setting": "[2]", "result": 0.9, "unit": "kcal/mol"}, {"measurement": "Kd", "setting": "[2]", "result": 16, "unit": "nM"}, {"measurement": "N", "setting": "[2]", "result": 0.994}, {"measurement": "ΔG°", "setting": "[2]", "result": -10.6, "unit": "kcal/mol"}, {"measurement": "ΔH°", "setting": "[2]", "result": -10.7, "unit": "kcal/mol"}, {"measurement": "IC50 (read off the curve)", "setting": "[3]", "result": "~0.7", "unit": "nM"}, {"measurement": "IC50 (read off the curve)", "setting": "[4]", "result": "~1", "unit": "nM"}]}
{"binder": "B2", "values": [{"measurement": "Kd", "setting": "[5]", "result": 155, "unit": "nM"}, {"measurement": "-TΔS°", "setting": "[6]", "result": 9, "unit": "kcal/mol"}, {"measurement": "N", "setting": "[6]", "result": 0.96}, {"measurement": "ΔG°", "setting": "[6]", "result": -9.3, "unit": "kcal/mol"}, {"measurement": "ΔH°", "setting": "[6]", "result": -17.8, "unit": "kcal/mol"}, {"measurement": "Kd", "setting": "[7]", "result": 157, "unit": "nM"}, {"measurement": "-TΔS°", "setting": "[2]", "result": 0.09, "unit": "kcal/mol"}, {"measurement": "Kd", "setting": "[2]", "result": 5640, "unit": "nM"}, {"measurement": "N", "setting": "[2]", "result": 1}, {"measurement": "ΔG°", "setting": "[2]", "result": -7.13, "unit": "kcal/mol"}, {"measurement": "ΔH°", "setting": "[2]", "result": -7.2, "unit": "kcal/mol"}, {"measurement": "-TΔS°", "setting": "[8]", "result": 8, "unit": "kcal/mol"}, {"measurement": "Kd", "setting": "[8]", "result": 160, "unit": "nM"}, {"measurement": "N", "setting": "[8]", "result": 0.959}, {"measurement": "ΔG°", "setting": "[8]", "result": -9.27, "unit": "kcal/mol"}, {"measurement": "ΔH°", "setting": "[8]", "result": -17.2, "unit": "kcal/mol"}, {"measurement": "-TΔS°", "setting": "[9]", "result": 1.3, "unit": "kcal/mol"}, {"measurement": "Kd", "setting": "[9]", "result": 34000, "unit": "nM"}, {"measurement": "N", "setting": "[9]", "result": 1}, {"measurement": "ΔG°", "setting": "[9]", "result": -6.07, "unit": "kcal/mol"}, {"measurement": "ΔH°", "setting": "[9]", "result": -7.3, "unit": "kcal/mol"}, {"measurement": "-TΔS°", "setting": "[10]", "result": 3.6, "unit": "kcal/mol"}, {"measurement": "Kd", "setting": "[10]", "result": 219, "unit": "nM"}, {"measurement": "N", "setting": "[10]", "result": 0.98}, {"measurement": "ΔG°", "setting": "[10]", "result": -9.1, "unit": "kcal/mol"}, {"measurement": "ΔH°", "setting": "[10]", "result": -12.7, "unit": "kcal/mol"}, {"measurement": "-TΔS°", "setting": "[11]", "result": -1, "unit": "kcal/mol"}, {"measurement": "Kd", "setting": "[11]", "result": 900, "unit": "nM"}, {"measurement": "N", "setting": "[11]", "result": 0.98}, {"measurement": "ΔG°", "setting": "[11]", "result": -8.27, "unit": "kcal/mol"}, {"measurement": "ΔH°", "setting": "[11]", "result": -7, "unit": "kcal/mol"}, {"measurement": "fold decrease in binding affinity against the wild-type VHH", "setting": "[12]", "result": "~8", "unit": "fold"}, {"measurement": "ΔΔG° against the wild-type VHH", "setting": "[12]", "result": 1.2, "unit": "kcal/mol"}, {"measurement": "fold change in IC50 with and without 1 mM metals", "setting": "[13]", "result": 1000, "unit": "fold"}, {"measurement": "IC50 (read off the curve)", "setting": "[3]", "result": "~0.6", "unit": "nM"}]}
